Laboratory results published in publication PMC9811540.

Target: UltraID-δ opioid receptor fusion protein (UniProt P41143)
Assay: proximity labelling; test selection on live Expi293F cells expressing UltraID-DOR; 0.1 nM DTK-DNA, 0.1 nM Met-Enk-RF-DNA, 100 nM non-ligand DNA, biotin 2 μM, ATP 50 μM, 30 minutes; lysis with 1% SDS, streptavidin beads, qPCR

Row | Substance | fold enrichment over non-ligand DNA [fold]
1 | Dmt-Tic-Lys (DTK), DNA-linked (peptide) | 280
2 | Met-Enk-RF, DNA-linked (peptide) | 40
